{"source": "paper PMC11659472", "about": "(Communications Biology, 2024)", "molecular_target": "the molecule itself", "assay": "cryo-EM structure"}
{"protein": "Roseospirillum parvum LH1 αβ-polypeptide pair (complex) chain 1: not shown chain 2: MATTENVTSSTGLTEAEAKEFHAVYSQSAAGFLAVCAVAHVLAWMWRPFWPGAEGWVMDTAQNLTFLA", "values": [{"measurement": "stoichiometry N", "value": 16}]}
